Test [1] deals with histone H4K5ac (Homo sapiens) (UniProt P62805). Nature of the test: ITC. Particulars: cited from earlier work.
Test [2] concerns the target T1, ATAD2 CO C1057A/C1079A/C1101A bromodomain (triple cysteine mutant) (human, UniProt Q6PL18 981-1108, C1057A | C1079A | C1101A).
T1 sequence: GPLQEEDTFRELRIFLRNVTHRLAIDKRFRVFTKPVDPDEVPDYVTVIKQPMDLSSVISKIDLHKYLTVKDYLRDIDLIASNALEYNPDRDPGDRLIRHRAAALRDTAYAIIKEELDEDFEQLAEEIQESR
Nature of the test: ITC.

No end group written: not given here.

By Kd is commonly meant the constant that tells how readily two partners part at equilibrium. Take ATAD2 bromodomain (from UniProt Q6PL18): the dissociation constant (Kd) in test [1] is 22 µM.

What is called stoichiometry N is a count of units in the complex or per binding partner. On to SGRGK(Ac)GGKGL [histone H4K5ac peptide (residues 1-10)], for which, in test [2], the Kd came to 113 µM, the dH was -4.2 kcal/mol and the “stoichiometry N” value was 0.84.
